Assay: soluble on expression in E. coli; label from the status in PepcDB or PDB records

Question: With “MAFANFRRILRLSTFEKRKSREYEHVRRDLDPNEVWEIVGELGDGAFGKVYKAKNKETGALAAAKVIETKSEEELEDYIVEIEILATCDHPYIVKLLGAYYHDGKLWIMIEFCPGGAVDAIMLELDRGLTEPQIQVVCRQMLEALNFLHSKRIIHRDLKAGNVLMTLEGDIRLADFGVSAKNLKTLQKRDSFIGTPYWMAPEVVMCETMKDTPYDYKADIWSLGITLIEMAQIEPPHHELNPMRVLLKIAKSDPPTLLTPSKWSVEFRDFLKIALDKNPETRPSAAQLLEHPFVSSITSNKALRELVAEAKAEVMEEIEDGRDEGEEEDAVDAASTLENHTQNSSEVSPPSLNADKPLEESPSTPLAPSQSQDSVNEPCSQPSGDRSLQTTSPPVVAPGNENGLAVPVPLRKSRPVSMDARIQVAQEKQVAEQGGDLSPAANRSQKASQSRPNSSALETLGGEKLANGSLEPPAQAAPGPSKRDSDCSSLCTSESMDYGTNLSTDLSLNKEMGSLSIKDPKLYKKTLKRTRKFVVDGVEVSITTSKIISEDEKKDEEMRFLRRQELRELRLLQKEEHRNQTQLSNKHELQLEQMHKRFEQEINAKKKFFDTELENLERQQKQQVEKMEQDHAVRRREEARRIRLEQDRDYTRFQEQLKLMKKEVKNEVEKLPRQQRKESMKQKMEEHTQKKQLLDRDFVAKQKEDLELAMKRLTTDNRREICDKERECLMKKQELLRDREAALWEMEEHQLQERHQLVKQQLKDQYFLQRHELLRKHEKEREQMQRYNQRMIEQLKVRQQQEKARLPKIQRSEGKTRMAMYKKSLHINGGGSAAEQREKIKQFSQQEEKRQKSERLQQQQKHENQMRDMLAQCESNMSELQQLQNEKCHLLVEHETQKLKALDESHNQNLKEWRDKLRPRKKALEEDLNQKKREQEMFFKLSEEAECPNPSTPSKAAKFFPYSSADAS” as the sequence, how does the “soluble on expression in E. coli” value read?
Answer: The value was “soluble”.

Question: With “MGRVDGLDKFKGLFDALEPKSEGQRELKEALLSDVDLVGVFGPTGTGKSLFSIVYGVSMTAEGRFRRVVLARPVIDVVTGRELTVMTDAQSYRRLAAEYLMDILSGFLGEERVREILSSDSLVLVDPHFLRGRTFDNSVIIVDDSQSMPPEAIVEIITRLGTGSKLIVIGDPVFQRTSEPGLDGASMAREILSNEPTAEVVDLGLKDIVRPGAKRGVKMLMELLMRRRTLNQAEKEVIEAARMHSPDADIITAVDLQDAKRKWGIESDHVPDVLVVVKEGHLGRFIGRGGERIEKIEGETGLRIRAIEHTLDLKEIVRAIHPVSWIHKHVIDFDFAGPQLKIKVSKEHMGPMLGQKGAHIRFLDEIVRKLLGVGVFVEEVEERRGRRRRR” as the sequence, how does the “soluble on expression in E. coli” value read?
Answer: Its value is “not soluble”.

Question: Which “soluble on expression in E. coli” value does the source give for “MAHHHHHHMKRLIQSLQHFSVTSSEHVELFSKITLRDFGFYVSDADAMRYVADEAYSIAERAFQLENALHQHRLSASTAQVSPMAWKSSSNDTVGCSTLYQDEAVTLCWFVLPPGKVLPLHDHPGMTVWQRAMHGRLHLCSITREAVSQTSTGASTAPINGTVVFDGELDGVGDAIPASDVLGFTPTDGDGGGMLHEIRNIDATQPALFVDIISPPYNQASSSMVCGYYTAEPLNATATLLPALAADCGVRHQLKAGDKVRLRPRTNYSGPAMNAFLHVV” here?
Answer: The value was “not soluble”.

Question: With “MSSYDIAIIGGGISGVGIAQYAAAAGYSTLLIEKGEIGGQTSANSSKLIHGGLRYLESGQINLVRKSLLERRNLLDLAPSLVKPVAFYIPVYQDSRRNPLTIRAGLSLYALLSEFDPLGRFVSIPAVHWHRFKGLKLSGLKAVFQYWDAQTDDKLLTQAVARSAQALGAHIYAEAEFLQLNHLKEQIELSFRHRGEVQQIETKLVINAAGPWVNEVLAHVEPPLAGVEIDWVQGAHLLLDLPAPEGILYLESCFDKRVIFVMPWYGQMLIGTTETVLTSIDTPPQVTESETQYLLGIYCHYFPLSPSIEELKTKIVQTYCGVRVLPKQASSAFERPRDTLMQTSISHPRLLCLYGGKLTTFRSSSAEVLEWIEQKLGKRQPIADIDTLKLTLEHHHHHH” as the sequence, how does the “soluble on expression in E. coli” value read?
Answer: The value was “not soluble”.

Question: Which “soluble on expression in E. coli” value does the source give for “MSKPYLAGLLLISPWALAASGSWSSESFGGTMTRGQQSVKSKPLQSPSPLPPGARATTVHWKIKTDGLTPSGLRIRLCNAARCVRLAGWAGEMPLPAGIAPEGPFRFEYHASEAGTLRSPVTILSNQLTVSYHSSH” here?
Answer: The value was “not soluble”.

Question: Which “soluble on expression in E. coli” value does the source give for “MNTRIKPVRSFLFVPGNKESMLDKAAQAGADALILDLEDSVPSPEKTAARELVAKKIPELIAQNQRIWVRINRTAHIYDLDDILAVAPAGIEGIYISKPGGPEDVYMASCMIAEAEARANLPLGSIGLIPLLETARSMQLCYDIAQMPRVAGIVGATARNADMGRALKFVWTAEGRETEYLKSRVVMAARAAGKQAIGGLWQQIKDLDGLAKSSAFDRQLGMSGELVLHPMQVETINRTYTPTAEDVAYYQGMIEALDAAQAQGRASVMYEGEHIDIAHVKTAHEVIALAQSFGNLEHHHHHH” here?
Answer: The value was “soluble”.

Question: With “MSLDTEAVLAAVEDAPVRETLDSMVASLKSHEDSEFAGAIATFTGRVRERDDPDDTPTQHLEFERYDTVAEQRMATIREQLCERDGVYDVRMHHRTGVVPAGDDVVHVVVLAGHRGDAFRAVSDGIDRLKDEVPLFKKEVTVDDAFWRHDEGHHHHHH” as the sequence, how does the “soluble on expression in E. coli” value read?
Answer: The value was “soluble”.

Question: With “EEKYVTVQPYTSQSKDEIGFEKGVTVEVIRKNLEGWWYIRYLGKEGWAPASYLKKAKD” as the sequence, how does the “soluble on expression in E. coli” value read?
Answer: Its value is “soluble”.

Question: With “MNNHNCFLTPLQQKFMQILSDYERDPKSIQIHEESDQMDVVISYFKLLLAEKSRLLQYGQANFSVHLIDEEIGRLFMAPISMADIGILEECGREALRFTDLGAMFSDSDDSMHSDEDEVTLTESIRIPVETYPTYNFIGRIIGPRGTTAKQLEKDTGCRIMIRGNHSNKMYGNALHKTHGDGSQDAIDLPLRVIVETSGPRREATARITAALETVQVLLVPPPDGRDELKRRQLVELAIMNGTYRPSCSRIDHN” as the sequence, how does the “soluble on expression in E. coli” value read?
Answer: Its value is “not soluble”.

Question: With “MAHHHHHHMSSLKYIENSINSNIRVDGRTLSTYRTIEINKNILVSADGSSSVMNEENNVICGIKLSLLTPSLDAPDEGVINLQIDCPASVVANRIKKDHLQIMSSIIYDLCLKNNIDRKKMCILPSTFVWGVDINVMVLNAGGGLLDIISMAIYVALKDTVVPVVKPKKKIDESNTFHHTKCADYQVEIVENQKTNFPYENVPICVSIGEINNKYVYDMSKVEEELVENIFVVAVTSSGKCVAFHKLYGISMEIASILNMTENSSRISHHLFEKINEAIAKIETRSVLV” as the sequence, how does the “soluble on expression in E. coli” value read?
Answer: The value was “not soluble”.

Question: For “MAHHHHHHMLKKGFTATKIIGKRCFQWWDNLNTSWKFAIGFSVLFPPLWNYNERRKAREKQVYYNKSIKDYVFFDIAIENKYVGRVLIGLYSDQVPLSVENFIQLAEGYKVKDKYIGYRNTFIHKIYPGIGLVGGNVLNDKEGLSIYGKKFPDENFDMEFVQDGDVALFNEGPHSNSSQFIITFSPMPILHKHNVVIGTVLKGMDIIRMIENVGTKLGNPMYNVKIINCGLYRSLEQDGPPFFNMLHISDKGNKNIISKKEFENLSEQQRQSLMEEIGKSEKQR”, which “soluble on expression in E. coli” value is on record?
Answer: The value was “not soluble”.

Question: With “MQREDILGEALKLLETQGIADTTLEMVAERVNRPLDTLQRFWPDKEAILYDALRYLSQQVDIWRRQLLLDETLSAEQKLLARYSALSECVSNNRYPGCLFIAACTFYPDPTHPIHQLANQQKRAAHDFTHELLTTLEIDDPAMVARQMELVLEGCLSRMLVNRSQADVDTAQRLAEDILRFAQCRQGGALT” as the sequence, how does the “soluble on expression in E. coli” value read?
Answer: The value was “soluble”.

Question: With “MGSDKIHHHHHHAQQLNVQGDLVSSYVWRGMYQTGASIQPTLGFSVGNFSLTAWGSTDFDGTSASAGAAAKEIDLTAAYTLGRSGLTVSVADLWWAGQGARKYFNFKSHETAHHFEAGVAYTVQSETFPLSVAWYTMFAGQDKNAEGGQNYSSYVEFNYPFRVRMVDLNVTCGMVPYAAPQYNCDGFAVTNVALKGTTQIRFTDKFALPVFAQAVWNPRMEDAHLVFGITLKP” as the sequence, how does the “soluble on expression in E. coli” value read?
Answer: The value was “not soluble”.

Question: Which “soluble on expression in E. coli” value does the source give for “MEKNFKVAALYCFADLKHYRQLQKPLLDLCQAKDIKGTLLLAQEGINGTVAGSCAAIETLVDFITAEPAFQMPEIKYSWASKMPFHRMKVRLKKEIVTMGVDGVNPLKAVGTYVDPKDWNALIQDEETLLIDTRNDYEYAIGSFQGAVDPRIKTFREFPAWVLKHEADLKKKKKIAMFCTGGIRCEKSTAYVRELGYEQVYHLKGGILKYLETIPKEDSLWWGECFVFDERVSVKHGLEECGRELCRACRSPLNTESKLSPHYEEGVSCDACYNTRSEDDRERFRERHRQFQLSKLRAMHSHQELEHHHHHH” here?
Answer: Its value is “not soluble”.

Question: Which “soluble on expression in E. coli” value does the source give for “MGSDKIHHHHHHMADDETRKYVIPGLERGLTILMALSRSHREMSLAEIVKCVEWPKASVYRAVQTLEYMGFVRRHPSSGLYSLGVSVLRLGFEYVSSLDLVQVGQPVIESLRDRSGCSSHIVIRDGRDVIYVARVSAAGTTTHRVSVGTRLPVHRTSLGRVLLTGMSREAFERLYPDPELPDTRPGAPADREALWQLVQDDRARGYVVGESFFQLGISSIVYPLFTQEGDVAGAISIMVPVHEIPAEDRERLRGYVEDAAMTISEMLGYHDPRARRSDMP” here?
Answer: Its value is “not soluble”.

Question: With “MNEFKYNIGYALSGGFIKGFAHLGIMQALHEHGIRPEILSGVSAGALAAVFYADGKEPYHIVELFEHHSFKELTTFSINKQGLLKLDSFIDFLNSNLESKTIEELKIPTIITATDLDHGRIVSFKKGKIAERLAASCCMPILFAPIRINNTYYVDGGILMNLPVSPIRKECEKVIALNVDPLVADEYSKNVVSIALRAYHFIFQANTLPQKGIADLLIESYGLEEYSNRELERAEEIFEKGYNTATELLDRLLLENGTIWR” as the sequence, how does the “soluble on expression in E. coli” value read?
Answer: The value was “not soluble”.

Question: For “MIEGKTLVVNPFIGGSAKNITDEQYISILKKIKEKMPDLNIIITSYTTDEERTEKLCKDIGKDKIFAFSNGASILNTASIIDRADVYFGASTGPTHIAGALGKKIVAIYPHKKTQSPTRWGVLGNSNVRYIIPDENNPNEDYKNPYLEHHHHHH”, which “soluble on expression in E. coli” value is on record?
Answer: The value was “not soluble”.

Question: Which “soluble on expression in E. coli” value does the source give for “STITTEEVLVTVFQFLEKATEYPYNDPHKTLALVVHGILLTHGFRPSEEEPPENVDNWSLSVENAKIPNCFEENKYGGSYRHYKSCMTFEVRMVPLDKYVVVNAVASDVDRVFYCELKLEKYFKDTVLEGGKLVVPLRNLKWSQILKNVTDMIAVLRTQIIYALVPDSAKEGYEAKTSETHVGQSTNQQSQDSRQFSLPSRDPLRVVPPVGSRYYPSAYIDEDRDSIPVLGQGDLYPGGLPRLERTFPSGPLDGSFAAPDNGSLMGPRHSMFQRRDQRPGPGNNMLPRGAVPPGARFDEFGPRFPPDETYSTLAGWRHRQEMPNNDVDEPPPPEMYM” here?
Answer: The value was “soluble”.

Question: With “MLSVGRGIADITGEAADCGMLGYGKSDQRTAGIHQRLRSRAFVFRDDSQDGDARLLLIVAELPLPMQNVNEEVLRRLADLYGDTYSEQNTLITATHTHAGPGGYCGYLLYNLTTSGFRPATFAAIVDGIVESVEHAHADVAPAEVSLSHGELYGASINRSPSAFDRNPPADKAFFPKRVDPHTTLVRIDRGEATVGVIHFFATHGTSMTNRNHLISGDNKGFAAYHWERTVGGADYLAGQPDFIAAFAQTNPGDMSPNVDGPLSPEAPPDREFDNTRRTGLCQFEDAFTQLSGATPIGAGIDARFTYVDLGSVLVRGEYTPDGEERRTGRPMFGAGAMAGTDEGPGFHGFRQGRNPFWDRLSRAMYRLARPTAAAQAPKGIVMPARLPNRIHPFVQEIVPVQLVRIGRLYLIGIPGEPTIVAGLRLRRMVASIVGADLADVLCVGYTNAYIHYVTTPEEYLEQRYEGGSTLFGRWELCALMQTVAELAEAMRDGRPVTLGRRPRPTRELSWVRGAPADAGSFGAVIAEPSATYRPGQAVEAVFVSALPNNDLRRGGTYLEVVRREGASWVRIADDGDWATSFRWQRQGRAGSHVSIRWDVPGDTTPGQYRIVHHGTARDRNGMLTAFSATTREFTVV” as the sequence, how does the “soluble on expression in E. coli” value read?
Answer: Its value is “soluble”.

Question: For “MAVEEFNQNLNEIMKFKECNITVDTCVVIDGRITELISDGTIEKCTIIVPEAVISELEAQANKGREIGYFGIEELKKLVKVAKENEMVLEYYGERPSTGEVSLAKAGEIDAMIRKVAKDTNSILFTSDRIQYNLAIAQNINAHFLKVHEEKVDLKLV”, which “soluble on expression in E. coli” value is on record?
Answer: The value was “not soluble”.

From the DeepSol protein solubility set
